The record followed here is PMC4863159.

Several values for one entry are separate records, joined by “and”; a condition that tells them apart may be missing. Equal entries are not always repeated.

In general, stoichiometry N refers to a count of units in the complex or per binding partner.

The target in test [1] is C-CRD-RHCC-C-CRD fusion protein (not stated | Staphylothermus marinus). Description: cross-linking; disulfide-linked oligomers of purified, oxidized CRD-RHCC fusion proteins in non-reducing SDS-PAGE; samples heat-denatured; control: reduced and treated with 60 mM iodoacetamide (IAA).
Test [2] shares this target. Description: cross-linking; spontaneous disulfide cross-linking of CRD-RHCC fusion proteins over time; loss of the dimer band into polymers on anti-His Western blot, samples every 30 minutes for 4 hours, single exponential decay fit (y = e^-x/tau). In general terms: A western blot detects proteins with antibodies after separation by electrophoresis.
Test [3] has as its target C9A/C18A C-CRD mutant (CRD-RHCC fusion protein). Kind of test: western blot densitometry of the dimer band over time (spontaneous disulfide cross-linking). To be noted: no reducing agent added, read off a plot.
The target of test [4] is N-CRD-RHCC-N-CRD fusion protein (not stated | Staphylothermus marinus). Kind of test: cross-linking; disulfide-linked oligomers of purified, oxidized CRD-RHCC fusion proteins in non-reducing SDS-PAGE; samples heat-denatured; control: reduced and treated with 60 mM iodoacetamide (IAA).
The target is the same in test [5]. Kind of test: cross-linking; spontaneous disulfide cross-linking of CRD-RHCC fusion proteins over time; loss of the dimer band into polymers on anti-His Western blot, samples every 30 minutes for 4 hours, single exponential decay fit (y = e^-x/tau).
Test [6] concerns the target right-handed coiled-coil domain (RHCC) from Staphylothermus marinus, lacking CRDs (Staphylothermus marinus). Kind of test: SDS-PAGE at low SDS concentration; purified RHCC on SDS-PAGE with a low SDS concentration to preserve the tetrameric coiled-coil; monomer lane beside it.

With C-CRD-RHCC-C-CRD fusion protein, the stoichiometry N in test [1] is 3 and 2. Also, in test [2], the τ (decay of the dimer band into polymers) is 88 min.
In the case of “C-CRD-RHCC-C-CRD fusion protein C9A; C18A”, the other: dimer loss (normalized) in test [3] (t = 30 min, parent: est. 0.82) stood at 1; in test [3] (t = 60 min, parent: est. 0.38) it was 0.91; in test [3] (t = 90 min, parent: est. 0.29), 0.92; in test [3] (t = 120 min, parent: est. 0.23), 0.98; in test [3] (t = 180 min, parent: est. 0.23), 1; in test [3] (t = 240 min, parent: est. 0.22), 1.
Substance N-CRD-RHCC-N-CRD fusion protein displayed a stoichiometry N in test [4] of 2. Also, the τ (decay of the dimer band into polymers) amounted to 251 min in test [2] and 340 min in test [5].
In test [6], “right-handed coiled-coil domain (RHCC) from Staphylothermus marinus, lacking CRDs (domain or fragment)” had a stoichiometry N of 4.
